# Test results as given in the DeepSol protein solubility set.
# Experiment: soluble on expression in E. coli; label from the status in PepcDB or PDB records
row,Sequence,soluble on expression in E. coli
1,MAHHHHHHMPFNREILAAISFESGPLSSAEIAARRTPTEEPPKNLEVKSCDKRDEPRQNEATINLIRCMKWALGQSITSISHPAKQRPLNPKRDFSIKTKINLDVGVEKPKPGFCCSTAAATGVREQRNHHAPFYDAHGDSEEASHLDESDVESHDEVPNVPLAFVDYSPMCYRHIREFFNIDHRAYRDVLLRSRWHSTPTPGKSAAQLFFCGRDWVIKTMTHEESKFLRRILHRYYFFVLDHPYTLLPHFVGHHRLEINGEKMYIIIMQNVFVTGNTIHEKYDLKGSTVGRFATEAEKKKQTCTQKDLDINRPLHVGATRRNLLIEQMKMDCGFLNQCNIMDYSFLVGIHVLPMYEAHRPAPSTGSREYLGGAAALATSALEPSYLLGMGETMQPMALNGHPTAAADSAPTDGRCFKADQGGMMSADHPGGRREIYYIGIIDILQEYNSRKSMETLVFGMLKDRQKISAVPPKEYAARFVSFVSSIIV,not soluble
2,MVNAIRTPDQRFSNLDQYPFSPNYLDDLPGYPGLRAHYLDEGNSDAEDVFLCLHGEPTWSYLYRKMIPVFAESGARVIAPDFFGFGKSDKPVDEEDYTFEFHRNFLLALIERLDLRNITLVVQDWGGFLGLTLPMADPSRFKRLIIMNACLMTDPVTQPAFSAFVTQPADGFTAYKYDLVTPSDLRLDQFMKRWAPTLTEAEASAYAAPFPDTSYQAGVRKFPKMVAQRDQACIDISTEAISFWQNDWNGQTFMAIGMKDKLLGPDVMYPMKALINGCPEPLEIADAGHFVQEFGEQVAREALKHFAETE,soluble
3,MAHHHHHHMNINKILFSKVGEVVKNGNGGMNMQQGASQLLSGKKLIYISKPTHGGFIYWKCRELIHTIKKKTKRCARYLDINHDFSRAALVGVPKTSYDPKNNIFYIQMDNEEWAGNFYKNGPSGVLMWGVMFFAKVCKMGKNALHTIRAAPFGRFAE,not soluble
4,MFTKSHLALVIGAVLAAPAVANVQTDEHLVVEGREFGYKADTNSTAMRMEMTQLETPGQVAVIDETVIDEQRASTLGEVLRNDASVSAGGTSRNRERFSLRGFELSSSDGFLRDGRQHWSHYRQPIEL,not soluble
5,MNKEMTLLPPPELVQYVGGDFKKVGKEFLKHFIQIGALKSNEKVLDVGCGVGRMAVPLMNYLNDDGAYYGFDLFKDGITWCQNNISTMRNNFHFEHVDIYNQFYNPEGKEDASQYRFPYEDGTFDFIFLTSVFTHLLPKELEHYVSEIVRVLKKDGRCFITFFLINPESSYYLNAGQSTLGFYHRIENCYVVNKDIPNFAVAYPETDICNLLNKYGLEIINKPHYGLWCGRHEYTSYQDIVLTKKSLEHHHHHH,not soluble
6,MGSDKIHHHHHHMLNSDLDIRLEPRIKELYRLHKERSANIDWSYHEFIPWDKAMSFKRVPWEESQVTLPEGVIVAVETALLTEVNLPWYTSHLDYTFKNSMEVINDFVRTWTAEEDQHSSLLETYLLVTRNVNPTRLHQLRRRVVESGWFPDFTNPLATMAYTSLQELATLVFYNNVARVAGAHDKDLATLLRRLAKDEALHYAFYRDTVKAHLELDPNFIVFFEDVIINFSMPGAIMPDFTERMKTIAIDTNYGPLQYFDQVLDVVVKYWDIENLQPTSEEAKQSQANIMKYHGRLKRIKDRQSAKNKIDA,not soluble
7,MGSDKIHHHHHHMLYFQNAFSLRGTHDAIIVGIFEGHEPLVAELKQLDETLNGHLSTLVKQKQLKTEAGKITELYTFGLIETKWVLAVGLGKRSDASADTLRAGFAAVGERVKEKRMTNVTVVLPSFVSERVSEQEVARLFGESFTMGYSTIDDYKERTNLVDKSLNSVTVFHGHRPVETGIREGIAYGNGSVYAERLMSIPRTLLSPTELVTEAQALANRHGFDTETLEQKELEKLGMGGLLAASGPAENATMIVLKNKGKREEREVIGLIGAGGNGIFSPWMGGAAAVLGAMDIIGSLHSQKNVLAILPIVEQEQGQPKPMPGDVIRSYSGKTIEVDHIEAVGALLLADGITYAKELGVHSLVTVAPLAEELRSILGDKFTAAVTNDESWLKKMQEASLKSGEPIWTLPYYRPYKKRLQEESVADLRLTIGRFANCMATALFVGEFAENDPWVHLDIAGTVARARGIMVRTLAAFVLNNGERELR,not soluble
8,MGSDKIHHHHHHMSEENKIGTYQFVAEPFHVDFNGRLTMGVLGNHLLNCAGFHASDRGFGIATLNEDNYTWVLSRLAIELDEMPYQYEKFSVQTWVENVYRLFTDRNFAVIDKDGKKIGYARSVWAMINLNTRKPADLLALHGGSIVDYICDEPCPIEKPSRIKVTSNQPVATLTAKYSDIDINGHVNSIRYIEHILDLFPIELYQTKRIRRFEMAYVAESYFGDELSFFCDEVSENEFHVEVKKNGSEVVCRSKVIFE,not soluble
9,MSIAQEFEKANTHYSSNFTKRDLPLPPARKVAVVICMDARIDPAASLGLTEGDAHVIRNAGGRASDALRSVIISQRLLGTREIVVVHHTDCGMLTFSDNDLRGIVAKETGHNVDHFAFLPFGDLEKSVKDDVEFFKRNPLVLDVPVTGYIYDVKSGAINKVDS,soluble
10,AGQCSQNEYFDSLLHACIPCQLRCSSNTPPLTCQRYCNASVTNSVKG,soluble
11,MQASASNSSSYTVNASVLHVRAGSSTSHDIISRVYNGQSLNVIGEENGWYKININGKTGFVSGEFVSKNGTSNSNVSTTGGKNKVTADVLRVRTAPNTSSSVSGRVYEGQTLNVIGQENGWVKINHNGQVGYVSGEFVSGVSSNAGSSNSNTNNNNQESVKPASGNYTVNVSSLRVRTGPSTSHTTVGSVTKGQVVQVVGEVQDWFKINYAGQTAYVSKDYVTKGGSSDNVTQGNNQNNNQNNNVTVQTGGTYVVNATSLRVRTGPATYHSVIGGVLNGTTLNVIGSEGSWFKVNYQGKTGYVSSEFMKFVKGGTTTPEQPKQPEQPNQGAIGDYYINASALNVRSGEGTNYRIIGALPQGQKVQVISENSGWSKINYNGQTGYIGTRYLSKTPVGGAVDNNKPNNNQNNNQNNNNNTGNNSGNSSSILAYAKGMQGVPYVWGGTSANGVDCSGYIYHVFKKFGHNISRQSVAGYWGSLPQTSNPQPGDLIYFQNTYKSGPSHMGIYLGGGSFIQAGDKGVAIASLSNSYWKSHFLGYTKAPLEHHHHHH,soluble
12,MHPLLRRLDLNLLLVFDALYRHRNVGTAASELAISASAFSHALGRLRQGLDDELFLRQGNRMQPTQRAEHLAAAVAAALRALGEGLEEWRPFVPGQSQRTFVFAATDYTAFALLPPLMNRLQHSAPGVRLRLVNAERKLSVEALASGRIDFALGYDEEHERLPEGIQAHDWFADRYVVVARRDHPRLAGAPTLEGYLAERHAVVTPWNEDSGVIDRLLARSGLRREVAVQLPTVLAALFLAGSTDFLLTAPRHAARALAEAAGLALYPAPFDIPPYVLRLYSHVQHVGRDAHAWMIGQLKGLDISRTG,soluble
13,NDPDADRFALAARKPDGGYKMLTGDQVGTLFGHYLLTHTEASGKLVGNTIVSSTLLKKIAESMGAEYFQTLTGFKWLTNVAMQKETKEKQFLFAYEEALGYTIGSQVWDKDGLSALVAFAQLTAELATQGKCVWDQLESIYRQHGIHIN,not soluble
14,MNKKSVGQPPEGLHETKSLASALPEKNAEQRPKYVQIVALPSEIKSRELPIAPDNVVYFNGPTHYLSALYPCTVVVDGNEYNSVEHYYQACKLYVLTGEQSAAQLKASETPIEVKKATKNILKEAKIPAKKISAWKDKDSIAVLKHVIYHKFNQNDELKVKLLDTGDKILIQTYIGDTYFAAGANAKYTSTWVDRHVNQSLKYPENVVVDNVQYLPLVANGKNVLGWILMQVRDELRMRSSA,soluble
15,MEDLNFEERGSTQIPASLQQHFSAKLGRQNELEKTPSRGGLGLVVNSSKTPGGKSLQSLASACKVPPSTKKNTIPIAFECYEDETDDQIADVATIKKTEKHPCSPIDTANRCETFDSLAADIEDDMLNLEDQDVVLSEDRPYGDVIDPAESEAEALAELGVEEWDSYPPIDPASRIGDDFNYVLRTEDFAEEGDVKLEETRHRTVIADIDEVKMSKAERNELFSMLADDLDSYDLLAEEANLPL,not soluble
16,SNEVKESLRSIEQKYKLFQQQQFTFIAALEHCRENAHDKIRPISSIEQVQSYMEHYCNNSTHRRILIMFMDICSELSKLCQHFEALHSGTPVTNSLLEKCKTLVSQSNDLSSLRAKYPHEVVNHLSCDEARNHYGGVVSLIPIVLDFMKEWIAHSEKLPRKVLQHGTT,soluble
17,GQQKNMENKTLNENIPEMIISLEKEALASTDPMAFVELSDTDVIYFDPSLETKIEGLEQLRTYYKGMQLPPADHFDMIRPVVQVAQNIAVLTFNLDSYLSDKVIKWNCTEVYRRNPDNQWKIIQTHWSYVKPLD,soluble
18,MSLSDPIKITFSVEGLSHPFLVKQKQLAEETGKRLGAQVNVISANDDVNQQFNDIQTAIAQGTDALMMMPATTQGLDAVLKQAEAAQIPYFFSQKGMLGVEPASQVLAPYSNEGQQLGEWVVEHYKGQEDVKVAIISGIPGDQSSDARVNSFLLPLLRSCNFNVVANQPGNYRRGDSEKAAQNMLAANPDIDLLFGANDEAALGGIAALKSSGRQGVDVVGLDGQTDMFAAIQSGQALATVIHKPTAGIVVEEAVDYLRGKPVPEYRVLDEDLVTKETIETGAQPAEGHHHHHH,soluble
19,MGSSHHHHHHGKTIFVIVPTNEEQVAFLEALAKQDELNFDWQNPPTEPGQPVVILIPSDMVEWFLEMLKAKGIPFTVYVEEGGSENLYFQGGGGGGQRHAHDSAVGDKALTHKGRLRLSQNASGSAAGRCGSDDGNDSDQGGVDDDNGGAVGRRRRGAGGVLRRRRPQERGGNARRGGSDGDENSYDGDDAGGIPETDANGVKLTRLQRKKLAKEREREERRQAQEAALEAQRQRMDVNELRDAEAALREEELKAAEEAALQQLRRDKKKAEDEEYAKWVSHIGVEERGELGDEERERQTRMQSFLLDRAAQVQARARRSAAGAKSSPSEEECIHVLILQTAARDLKVSVEELVSTIEQLSQVDKVHGVFDDRGKYVFIAPEQFPLLAQFIRLRGRVSVQEFTRECNRVVMQS,soluble
20,DIQMTQTTSSLSASLGDRVTISCSASQDISSYLNWYQQKPEGTVKLLIYYTSSLHSGVPSAFSGSGSGTDYSLTISNLEPEDFATYYCQQYSKFPWTFGGGTKLEIKRADAAPTVSIFPPSSEQLTSGGASVVCFLNNFYPKDINVAWAIDGSAAANGVLNSWTDQDSKDSTYSMSSTLTLTADAYEAANSYTCAATHKTSTSPIVKSFNANEC,soluble
21,MGSDKIHHHHHHMQINRLTLTNFRGLTNSVLDFAPGFNLVVGVNGVGKTAVLEALRILLAKALPSFAEVRGFPGIGLTKDDITIDRKQAAIEVSFTHQAHTFSLLLSDQLEVVRDAVDEQKGLKDIRDIDELASLRHGQRPERGDPRLEGTLRGQTSERPRASGQLSPTPDRALKKSKPQPIVLYFSVRRAVPSPGTPKTKAGTPYQGIFEIERGLELGKIIEWWNSKATVAREAPDSRSAKQLTTTCNALERLLPHLSDWKVEDGNFTVCKVADVGVLNDESGEFEVKQETRRLPVQFLSDGERSLIAIGIDIAYRLASLNEDSETPLDDGEGIVLIDELDLHLHPQWQRTVVELLRTAFPKLQFICTTHSLFLIQSQRMGNLIQLDRIGDEEESAEQYHNQSIEDIAEEVQGIDLPQRSKRHVELMLAASEYYRALKKAEDDPNIPIEELKEKYEALSLRYSADPLVAAALDFRWETFVFKRNHATRR,not soluble
22,MGSDKIHHHHHHMRHLKAFYVFHVTAESSNYSKAAEKLHITHGAVSKQIKLLESHLSQMLFYKQGRGMCLTQEGELLKQYTDIAFNALDNGIKKLTRESNKHLEVSCEPTLTMRWLMPRLASFFRLTGIDVRLSTAGGPVDLNETGLSLAIRRDDFDISPEYTAHNLVNEWVGPVFSPEYWRKSQNNLGDIVLLHSETRPSAWSDWSSRSKHTFYTNKSKSFEHFYFCLQAAVDGLGAAIGSYPLIVDDLKSGRLVAPFGFTQSGHKYVLLSHTERLGSNELEFLTWLEKTMSLCQPETP,not soluble
